Target: PKM2 (purchased from Abcam) (UniProt P14618 1-531)
Experiment: cell-based or functional assay

PKM2 (purchased from Abcam), sequence (P14618 whole entry): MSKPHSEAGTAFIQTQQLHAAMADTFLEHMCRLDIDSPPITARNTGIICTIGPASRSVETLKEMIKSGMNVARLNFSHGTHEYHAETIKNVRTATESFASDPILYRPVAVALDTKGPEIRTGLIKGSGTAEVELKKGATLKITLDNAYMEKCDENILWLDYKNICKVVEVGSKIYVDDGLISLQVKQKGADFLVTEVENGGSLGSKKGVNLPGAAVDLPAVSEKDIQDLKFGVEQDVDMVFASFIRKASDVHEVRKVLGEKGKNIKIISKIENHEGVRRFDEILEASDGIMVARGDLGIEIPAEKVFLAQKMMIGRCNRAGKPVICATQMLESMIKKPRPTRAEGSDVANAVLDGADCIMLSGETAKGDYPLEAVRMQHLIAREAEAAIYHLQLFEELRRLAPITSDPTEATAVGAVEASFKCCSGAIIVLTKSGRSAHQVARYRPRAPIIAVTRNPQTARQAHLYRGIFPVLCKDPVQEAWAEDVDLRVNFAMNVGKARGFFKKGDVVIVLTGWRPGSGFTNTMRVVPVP

PK activity of PKM2 with FBP; FOXM1D added at 10, 20 and 30 μg per 10 μg PKM2 (molar ratios about 0.665, 1.33 and 2); share of the activity abolished at 1.33-fold FOXM1D: ~49%
B1: recombinant Flag-FOXM1D (purified) (natural protein, UniProt Q08050-4 1-786, looked up)
chain: MKTSPRRPLILKRRRLPLPVQNAPSETSEEEPKRSPAQQESNQAEASKEVAESNSCKFPAGIKIINHPTMPNTQVVAIPNNANIHSIITALTAKGKESGSSGPNKFILISCGGAPTQPPGLRPQTQTSYDAKRTEVTLETLGPKPAARDVNLPRPPGALCEQKRETCADGEAAGCTINNSLSNIQWLRKMSSDGLGSRSIKQEMEEKENCHLEQRQVKVEEPSRPSASWQNSVSERPPYSYMAMIQFAINSTERKRMTLKDIYTWIEDHFPYFKHIAKPGWKNSIRHNLSLHDMFVRETSANGKVSFWTIHPSANRYLTLDQVFKQQKRPNPELRRNMTIKTELPLGARRKMKPLLPRVSSYLVPIQFPVNQSLVLQPSVKVPLPLAASLMSSELARHSKRVRIAPKVFGEQVVFGYMSKFFSGDLRDFGTPITSLFNFIFLCLSVLLAEEGIAPLSSAGPGKEEKLLFGEGFSPLLPVQTIKEEEIQPGEEMPHLARPIKVESPPLEEWPSPAPSFKEESSHSWEDSSQSPTPRPKKSYSGLRSPTRCVSEMLVIQHRERRERSRSRRKQHLLPPCVDEPELLFSEGPSTSRWAAELPFPADSSDPASQLSYSQEVGGPFKTPIKETLPISSTPSKSVLPRTPESWRLTPPAKVGGLDFSPVQTSQGASDPLPDPLGLMDLSTTPLQSAPPLESPQRLLSSEPLDLISVPFGNSSPSDIDVPKPGSPEPQVSGLAANRSLTEGLVLDTMNDSLSKILLDISFPGLDEDPLGPDNINWSQFIPELQ

From PMC8096781, “FOXM1D potentiates PKM2‐mediated tumor glycolysis and angiogenesis” (Molecular Oncology, 2021)
